Laboratory results: patent publication US20150147342A1 (published 2015)

How the values were obtained:
[1] = target: T1, Dimeric fibrinogen-like domain of mouse (Mus musculus) Ang-2 conjugated to human IgG1 (mouse (Mus musculus)); assay: blocking ELISA, 16.67 nM antibody, coated hTie-2-mFc
T1 construct: also called Dimeric Mouse Ang-2FD; Mouse Ang-2FD-hFc
Experimental: (§1) Tie-2 is a natural receptor for Ang-2. Anti-Ang-2 antibodies were tested for their ability to block Ang-2 binding to human Tie-2 (hTie-2). hTie-2-mFc (a chimeric construct consisting of human Tie-2 conjugated to mouse IgG; SEQ ID NO:525) was coated onto 96-well plates at a concentration of 2 μg/ml and incubated overnight followed by washing four times in wash buffer (PBS with 0.05% Tween-20). The plate was then blocked with PBS (Irvine Scientific, Santa Ana, Calif.) containing 0.5% BSA (Sigma-Aldrich Corp., St. Louis, Mo.) for one hour at room temperature. In a separate plate, purified anti-Ang-2 antibodies, at a starting concentration of 50 nM, were serially diluted by a factor of three across the plate. […] The antibody/Ang-2FD-Fc mixture was then added to the plate containing hTie-2-mFc and incubated for one hour at room temperature.

[2] = target: T2, Dimeric fibrinogen-like domain of human Ang-2 conjugated to human IgG1 (human); assay: as above
T2 construct: also called Dimeric Human Ang-2FD; Human Ang-2FD-hFc
Experimental: as §1

[3] = target: T3, Dimeric fibrinogen-like domain of monkey (Macca fascicularis) Ang-2 conjugated to human IgG1 (monkey (Macca fascicularis)); assay: as above
T3 construct: also called Dimeric Monkey Ang-2FD; Monkey Ang-2FD-hFc
Experimental: as §1

[4] = target: T1, Dimeric fibrinogen-like domain of mouse …; assay: SPR, antibody captured, room temp
Experimental: (§2) Antibody was captured on a goat anti-mouse IgG polyclonal antibody surface, a goat anti-human κ polyclonal antibody (Southern Biotech, Birmingham, Ala.) surface or a goat anti-human IgG polyclonal antibody (Jackson Immuno Research Lab, West Grove, Pa.) surface created through direct amine coupling to a BIACORE™ CM5 sensor chip to form a captured antibody surface. […] Antigen-antibody binding and dissociation were monitored in real time at room temperature. Kinetic analysis was performed to calculate KD and half-life of antigen/antibody complex dissociation.

[5] = target: T2, Dimeric fibrinogen-like domain of human …; assay: SPR, antibody captured, room temp
Experimental: as §2

[6] = target: T3, Dimeric fibrinogen-like domain of …; assay: SPR, antibody captured, room temp
Experimental: as §2

Human Ang-2FD-hFc = target: T4, Human Ang-2FD-hFc (human); assay: ELISA, 16.67 nM antibody + 2 nM human Ang-2FD-hFc, on coated hTie-2-mFc (competitor)
T4 construct: Order of the pieces follows the name (Ang-2FD, then hFc); also called Dimeric Human Ang-2FD; human Ang-2FD protein conjugated to human IgG
Experimental: as §1

Mouse Ang-2FD-hFc = target: T5, Mouse Ang-2FD-hFc (mouse (Mus musculus)); assay: ELISA, 16.67 nM antibody + 8 nM mouse Ang-2FD-hFc, on coated hTie-2-mFc (competitor)
T5 construct: Order of the pieces follows the name; also called Dimeric Mouse Ang-2FD
Experimental: as §1

B1: H2M743N (antibody, V domains shown)
VH: EVQLLESGGGLVQPGGSLRLSCAASGFTFRKYAMSWVRQAPGKGLEWVSVISVSGGNTYYADSVKGRFTISRDNSKNTLYLQLNSLRAEDTAVYYCAKDLTDIVLMVYVDYWGQGTLVTVSS
VL: DIQMTQSPSSVSASVGDRVTITCRASQDIDRWLAWYQQKPGKAPKLLIYAASSLQSGVPSRFSGSGSGTDFTLTISTLQPEDFATYYCQQANSLPFTFGGGTKVEIK
- Percent Blocking of Ang-2FD Binding to Tie-2 [1]: 98.4%
- Percent Blocking of Ang-2FD Binding to Tie-2 [2]: 99.6%
- Percent Blocking of Ang-2FD Binding to Tie-2 [3]: 95.1%
- Kd [4]: 0.882 nM
- T1/2 [4]: 195 min
- Kd [5]: 0.154 nM
- T1/2 [5]: 167 min
- Kd [6]: 0.234 nM
- T1/2 [6]: 169 min

B2: H1H693P (antibody, V domains shown)
VH: EVQLVESGGGLVQPGESLRLSCAASGFTFSSYAMSWVRQGPGKGLEWVSSISGSGGTTYYADSVEGRFTISRDNSKNTLYLHMNSLRAEDTAVYYCAKDFLDYSTYLAFDLWGQGTMVTVSS
VL: DIQMTQSPSSVSASVGDRVTITCRASQGISSWLAWYQQKPGKAPKLLIYAASSLQSGVPSRFSGSGSGTDFTLTISSLQPEDFATYYCQQANSFPRTFGQGTKVEIK
notes: Fully human antibody, human IgG1
- Percent Blocking of Ang-2FD Binding to Tie-2 (Human Ang-2FD-hFc): 73.9%
- Percent Blocking of Ang-2FD Binding to Tie-2 (Mouse Ang-2FD-hFc): 63.6%

B3: H1M728N (antibody, V domains shown)
VH: EVQLVESGGDLVQPGGSLRLSCTASGFTFSKYWMTWVRQAPGRGLEWVANIKEDGNEKYFLDSVKGRFTISRDNAKDLLFLQMNSLRGEDTAVYYCVRDRGIEVAGPFDYWGQGTLVTVSS
VL: DIQMTQSPSTLSASVGDRVTVTCRASQTIINWLAWYQQKPGKAPKLLISKASSLESGVPSRFSGSGSGTEFTLTISSLQPDDFATYYCQQYNRYWTFGQGTMVEIK
- Percent Blocking of Ang-2FD Binding to Tie-2 [1]: 83.9%
- Percent Blocking of Ang-2FD Binding to Tie-2 [2]: 98.5%
- Percent Blocking of Ang-2FD Binding to Tie-2 [3]: 97.1%
- Kd [4]: 5.65 nM
- T1/2 [4]: 9.9 min
- Kd [5]: 0.137 nM
- T1/2 [5]: 58.4 min
- Kd [6]: 1.58 nM
- T1/2 [6]: 69.5 min

B4: H2M730N (antibody, V domains shown)
VH: EVQLVESGGGLVQPGGSLRLSCAASGFAFRSYWMTWVRQAPGKGLEWVANIQQDGNDKYYVDSVKGRFTISRDNAKNSLYLQMNSLRAEDTAVYYCARDTGIAEAGPFDYWGQGTLVTVSS
VL: DIQMTQSPSTLSASVGDRVSITCRASQTIISWLAWYQQKPGKAPRLLIYKASSLESGVPSRFSGSGSGTEFTLTINSLQPDDFATYYCQQYNRYWTFGQGTKVEIK
- Percent Blocking of Ang-2FD Binding to Tie-2 [1]: 55%
- Percent Blocking of Ang-2FD Binding to Tie-2 [2]: 98.9%
- Percent Blocking of Ang-2FD Binding to Tie-2 [3]: 97.3%
- Kd [5]: 0.21 nM
- T1/2 [5]: 47 min
- Kd [6]: 0.842 nM
- T1/2 [6]: 36.6 min

B5: H2M750N (antibody, V domains shown)
VH: QVKLVESGGGVVQPGRSLRVSCAASGFTFSSYGMHWVRQAPGKGLEWLAIIWYDGDNKYYSDSVKGRFTISRDNSKNTLYLQMNSLRAEDTAEYYCVRDASIASRFLDYWGQGTLVTVSS
VL: DIQMTQSPSSLSASIGDRVTITCRATQDINNYLAWFQQKPGKAPKSLIYATSNLQSGVPSKFSGSGSGTDYTLTISSLQPEDFSTYYCQQYHSYPLTFGGGTKVEIK
- Percent Blocking of Ang-2FD Binding to Tie-2 [1]: 53.7%
- Percent Blocking of Ang-2FD Binding to Tie-2 [2]: 99.4%
- Percent Blocking of Ang-2FD Binding to Tie-2 [3]: 97.4%
- Kd [5]: 0.362 nM
- T1/2 [5]: 32.2 min
- Kd [6]: 1.47 nM
- T1/2 [6]: 23 min

B6: H2M742N (antibody, V domains shown)
VH: DVQLLESGGDLVQPGGSLRLSCEASGFTFRNYVMIWVRQAPGKGLEWVSGISNSGGTTHYTDSVKGRFTISRDNSKNTLYLQINSLRAEDTAVYYCAKGYLDTSLIEGNWFDPWGQGTLVTVSS
VL: NIVMTQSPLSLPVTPGEPASISCRSSQSLLHSNGFNYLNWFLQKPGQSPQLLIYLGSNRASGVPDKFSGSGSGTDFTLNINRVEAEDVGIYFCMQTLQTPLTFGGGTKVEIK
- Percent Blocking of Ang-2FD Binding to Tie-2 [1]: 98.6%
- Percent Blocking of Ang-2FD Binding to Tie-2 [2]: 99.6%
- Percent Blocking of Ang-2FD Binding to Tie-2 [3]: 94.1%
- Kd [4]: 0.61 nM
- T1/2 [4]: 30.8 min
- Kd [5]: 0.295 nM
- T1/2 [5]: 38 min
- Kd [6]: 6.17 nM
- T1/2 [6]: 28.5 min

B7: H1M724N (antibody, V domains shown)
VH: QVQLVESGGGVVQPGRSLRLSCAASGFTLSNYGMHWVRQAPGKGLEWVAVIWHDGSNTYYADSVKGRFTISRDNSKNTLYLQMNSLRAEDTAVYYCTREGLDFWSGYYPNWFDPWGQGTLVTVSS
VL: DIQMTQSPSSLSASVGDRVTITCRASQGIRNDLGWYQQKPGKAPKRLIYAASNLQGGVPSRFSGSGSGTEFTLTISSLQPEDFAAYYCLQHNIYPLTFGGGTKVEIK
- Percent Blocking of Ang-2FD Binding to Tie-2 [1]: 96.6%
- Percent Blocking of Ang-2FD Binding to Tie-2 [2]: 99.5%
- Percent Blocking of Ang-2FD Binding to Tie-2 [3]: 95.2%
- Kd [4]: 0.694 nM
- T1/2 [4]: 16 min
- Kd [5]: 0.179 nM
- T1/2 [5]: 42.7 min
- Kd [6]: 0.73 nM
- T1/2 [6]: 25.7 min

B8: H1M732N (antibody, V domains shown)
VH: EVQLVESGGGLVRPGGSLRLSCAASGFTFTNAWMSWVRQAPGKGLEWIGQIKSKTDGGTIDYAAPVKGRFTVSRDDSENTLFLQMNSLKTEDTAVYYCAGNWNYVDFDYWGQGTLVTVSS
VL: DIQMTQSPSSLSASVGDRVTITCRASQDIRNDLGWYQQKPGKAPKRLIYAASSLQGGVPSRFSGSGSGTEFTLTISSLQPEDFATYYCLQHNSYPFTFGPGTKVDIK
- Percent Blocking of Ang-2FD Binding to Tie-2 [1]: 90.9%
- Percent Blocking of Ang-2FD Binding to Tie-2 [2]: 97.7%
- Percent Blocking of Ang-2FD Binding to Tie-2 [3]: 95.8%
- Kd [4]: 1.7 nM
- T1/2 [4]: 21.4 min
- Kd [5]: 0.484 nM
- T1/2 [5]: 35.5 min
- Kd [6]: 7.33 nM
- T1/2 [6]: 24.1 min

B9: H2M749N (antibody, V domains shown)
VH: QVQLVESGGGVVQPGRSLRLSCAASGFTFSSYGMHWVRQAPGKGLEWVAVIWYDEFNKYYADSVKGRFTISRDNSKNTLYLQMNSLRAEDTAVYYCARERESGYSYGFDYWGQGTLVTVSS
VL: EIVMTQSPATLSVSPGERATLSCRAGQSVSSNLAWYQQKPGQAPRLLIYGASTRATGIPARFSGSGSGTEFTLTISSLQSEDFAVYYCQQYNNWWTFGQGTKVEIK
notes: Hybridoma-derived chimeric antibody, mouse constant domains; also called H1M749N; H1M749
- Percent Blocking of Ang-2FD Binding to Tie-2 [1]: 97.3%
- Percent Blocking of Ang-2FD Binding to Tie-2 [2]: 99.5%
- Percent Blocking of Ang-2FD Binding to Tie-2 [3]: 97.4%
- Kd [4]: 0.529 nM
- T1/2 [4]: 25.5 min
- Kd [5]: 0.165 nM
- T1/2 [5]: 42.9 min
- Kd [6]: 1.5 nM
- T1/2 [6]: 40.9 min

B10: H1H695P (antibody, V domains shown)
VH: QVQLVESGGGVVQPGRSLRLSCAASGFTFSSYGMHWVRQAPGKGLEWVAVMWYDETNKYYADSVKGRFTISRDNSKNTLYLQMNSLRAEDTAVYYCARYSGYEDYYHGMDVWGQGTTVTVS
VL: EIVMTQSPATPSVSPGERATLSCRASQSISSNLAWYQQKPGQAPRLLIYGASTRATGIPARFSGSGSGTEFTLTISSLQSEDFAVYYCQHYNNWITFGQGTRLEIK
notes: as for B2
- Percent Blocking of Ang-2FD Binding to Tie-2 (Human Ang-2FD-hFc): 98.4%
- Percent Blocking of Ang-2FD Binding to Tie-2 (Mouse Ang-2FD-hFc): 97.6%

B11: H1H685P (antibody, V domains shown)
VH: EVQLVESGGGLVQPGGSLRLSCAASGFTFSSYDIHWVRQATGKGLEWVSAIGPAGDTYYPGSVKGRFTISRENAKNSLYLQMNSLRAGDTAVYYCARGLITFGGLIAPFDYWGQGTLVTVSS
VL: EIVLTQSPGTLSLSPGERATLSCRASQSVSSTYLAWYQQKPGQAPRLLIYGASSRATGIPDRFSGSGSGTDFTLTISRLEPEDFAVYYCQHYDNSQTFGQGTKVEIK
notes: Fully human antibody, human IgG1; also called mAb1
- Percent Blocking of Ang-2FD Binding to Tie-2 (Mouse Ang-2FD-hFc): 97.1%

B12: H2M744N (antibody, V domains shown)
VH: QVQLVQSGVEVKKPGASVKVSCKTSGYTFSNNGFSWVRQAPGQGLEWLGWISGYNGNTNYAQKFQGRVTMTTDTSTSTAYMELRTLRSDDTAVYYCARDQDYSNFHWLDPWGQGTLVTVAS
VL: DIQMTQSPSSVSASVGDRVIITCRASQGLSSWLAWYQQKPGTAPKLLIHSASSLQTGVPSRFSGSGSGTEFALTINSLQPEDFGTYYCQQANSFPLTFGGGTRVEIK
- Percent Blocking of Ang-2FD Binding to Tie-2 [1]: 98.4%
- Percent Blocking of Ang-2FD Binding to Tie-2 [2]: 99.5%
- Percent Blocking of Ang-2FD Binding to Tie-2 [3]: 95.5%
- Kd [4]: 0.143 nM
- T1/2 [4]: 223 min
- Kd [5]: 0.0989 nM
- T1/2 [5]: 109 min
- Kd [6]: 0.5 nM
- T1/2 [6]: 282 min
